# Test results published in patent publication US20220127354A1 (Amgen, published 2022).
# T1: muCDH19(44-323)::raCDH19(324-327)::muCDH19(328-770) with leader and FLAG (construct X) (rat/mouse chimera)
# T1 construct: leader (1-43 of the entry) left out
# T1 chain: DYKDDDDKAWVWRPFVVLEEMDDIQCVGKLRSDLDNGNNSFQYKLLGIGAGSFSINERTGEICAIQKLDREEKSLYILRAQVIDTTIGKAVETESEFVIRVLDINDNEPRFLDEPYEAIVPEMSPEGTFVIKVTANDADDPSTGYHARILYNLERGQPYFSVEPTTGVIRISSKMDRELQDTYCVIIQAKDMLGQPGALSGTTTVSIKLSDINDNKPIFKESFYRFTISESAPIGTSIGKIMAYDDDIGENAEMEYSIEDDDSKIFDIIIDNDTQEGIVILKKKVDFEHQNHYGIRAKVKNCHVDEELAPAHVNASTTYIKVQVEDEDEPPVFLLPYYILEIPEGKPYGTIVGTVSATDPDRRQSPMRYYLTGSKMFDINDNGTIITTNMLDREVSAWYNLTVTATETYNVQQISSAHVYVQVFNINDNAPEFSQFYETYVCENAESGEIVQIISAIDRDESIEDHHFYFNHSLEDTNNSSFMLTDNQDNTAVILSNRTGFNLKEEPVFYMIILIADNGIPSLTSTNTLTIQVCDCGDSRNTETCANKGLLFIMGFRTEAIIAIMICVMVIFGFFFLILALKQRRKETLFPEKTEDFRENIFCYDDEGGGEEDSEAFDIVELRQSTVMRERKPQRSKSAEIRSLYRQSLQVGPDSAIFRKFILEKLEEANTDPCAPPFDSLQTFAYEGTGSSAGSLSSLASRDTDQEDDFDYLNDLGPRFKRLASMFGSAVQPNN
# T2: muCDH19(44-770)::huCDH19(271) with leader and FLAG (construct Z) (human/mouse chimera)
# T2 construct: leader (1-43 of the entry) left out
# T2 chain: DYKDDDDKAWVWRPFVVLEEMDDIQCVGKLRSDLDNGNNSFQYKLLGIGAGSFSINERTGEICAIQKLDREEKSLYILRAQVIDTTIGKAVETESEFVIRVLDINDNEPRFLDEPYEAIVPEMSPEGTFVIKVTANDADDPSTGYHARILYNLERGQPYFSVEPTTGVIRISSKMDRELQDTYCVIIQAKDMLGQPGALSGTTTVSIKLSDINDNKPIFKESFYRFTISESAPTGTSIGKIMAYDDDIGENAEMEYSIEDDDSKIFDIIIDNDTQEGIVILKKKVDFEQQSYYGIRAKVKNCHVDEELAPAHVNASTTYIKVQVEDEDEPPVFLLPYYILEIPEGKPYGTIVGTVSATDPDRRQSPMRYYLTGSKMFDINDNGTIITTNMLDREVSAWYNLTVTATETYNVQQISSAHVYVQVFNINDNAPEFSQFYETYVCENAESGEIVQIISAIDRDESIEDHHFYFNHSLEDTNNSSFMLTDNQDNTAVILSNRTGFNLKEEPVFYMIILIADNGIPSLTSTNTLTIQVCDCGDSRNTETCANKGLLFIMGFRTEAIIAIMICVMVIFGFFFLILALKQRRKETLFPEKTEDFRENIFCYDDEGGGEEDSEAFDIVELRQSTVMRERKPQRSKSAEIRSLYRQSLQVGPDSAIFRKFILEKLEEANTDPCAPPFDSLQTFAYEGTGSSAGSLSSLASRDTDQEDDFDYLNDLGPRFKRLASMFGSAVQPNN
# T3: caCDH19(1-42)::FLAG::caCDH19(43-770) (construct Q, Ca EC1-5) (dog)
# T3 construct: also called caCDH19(44-770); dog Cadherin19
# T3 chain: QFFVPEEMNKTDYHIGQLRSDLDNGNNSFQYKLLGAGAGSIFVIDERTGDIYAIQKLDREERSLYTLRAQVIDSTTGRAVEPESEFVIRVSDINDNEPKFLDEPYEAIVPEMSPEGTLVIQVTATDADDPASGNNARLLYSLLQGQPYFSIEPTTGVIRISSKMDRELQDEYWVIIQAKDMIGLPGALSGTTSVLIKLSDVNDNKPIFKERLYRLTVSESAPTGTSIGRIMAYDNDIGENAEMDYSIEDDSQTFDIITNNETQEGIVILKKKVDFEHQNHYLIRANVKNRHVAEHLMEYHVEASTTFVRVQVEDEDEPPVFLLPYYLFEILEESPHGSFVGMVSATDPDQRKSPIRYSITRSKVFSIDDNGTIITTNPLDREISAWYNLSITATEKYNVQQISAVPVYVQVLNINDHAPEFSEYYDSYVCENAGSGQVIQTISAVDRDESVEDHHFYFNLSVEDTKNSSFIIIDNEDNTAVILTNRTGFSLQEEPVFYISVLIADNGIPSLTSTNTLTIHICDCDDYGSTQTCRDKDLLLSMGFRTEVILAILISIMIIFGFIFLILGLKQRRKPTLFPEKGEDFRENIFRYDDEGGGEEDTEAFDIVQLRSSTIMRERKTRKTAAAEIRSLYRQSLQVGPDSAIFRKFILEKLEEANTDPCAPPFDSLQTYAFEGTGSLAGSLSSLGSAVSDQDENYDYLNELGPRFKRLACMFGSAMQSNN
# Key:
# [1] = target: T1, muCDH19(44-323)::raCDH19(324-327)::muCDH …; experiment: flow cytometry, transfected 293T cells, 2 mM CaCl2
# Method: (§1) The following binding assay was completed in presence of 2 mM CaCl₂). […] Cells were then washed one time and the amount of cell associated Alexa647-labelled Ab was quantitated by flow cytometry. The experiments included mock transfected controls.
# [2] = target: T2, muCDH19(44-770)::huCDH19(271) with …; experiment: flow cytometry, transfected 293T cells, 2 mM CaCl2
# Method: as §1
# [3] = target: T4, muCDH19(44-139)::huCDH19(142-364)::muCDH19(363-770) with Flag tag (construct E, Hu EC2-3) (human/mouse chimera); experiment: flow cytometry, transfected 293T cells
# T4 construct: leader left out; the entry starts at residue 44; also called C137847
# From the text: (§2) The experiment included assaying the anti-CDH19 antibodies against mouse Cadherin19 to determine suitability for binning on these human/mouse chimeras.
# [4] = target: T5, muCDH19(44-247)::huCDH19(250-364)::muCDH19(363-770) with Flag tag (construct F, Hu EC3) (human/mouse chimera); experiment: flow cytometry, transfected 293T cells
# T5 construct: leader left out; the entry starts at residue 44; also called C137911
# From the text: as §2
# [5] = target: T3, caCDH19(1-42)::FLAG::caCDH19(43-770) …; experiment: flow cytometry, transfected 293T cells, 2 mM CaCl2
# Method: as §1
# [6] = target: T6, rhCDH19(1-43)::FLAG::rhCDH19(44-141)::caCDH19(141-770) (construct R, rh EC1) (rhesus macaque/dog chimera); experiment: flow cytometry, transfected 293T cells, 2 mM CaCl2;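 further: antibody binding read out as cell-bound Alexa647 label signal, with mock-transfected cells as controls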
# T6 construct: leader (1-43 of the entry) left out
# Method: as §1
binding result [1],binding result [2],binding result [3],binding result [4],binding result [5],binding result [6],Binder
binds,no binding (tested: 5 ug/ml),binds,binds,,,"hu anti-<huCDH19> 4B10 (Ab ID 13590) (antibody, V domains shown, huIgG1z / huKLC; Bin 4) VH: QVQLVESGGGVVQPGRSLRLSCAASGFTFSSYDMHWVRQAPGKGLEWVAVISYDGTNEYYADSVKGRFTISRDTSKNTLYLQMNSLRAEDTAVYYCARERYFDWSFDYWGQGTLVSVSS VL: EIVLTQSPGTLSLSPGERATLSCRASQSVSNTYLAWYHQRPGQAPRLLIYGASSRATGIPDRFSGSGSGTDFALTISSLEPEDFAVYYCQQYSNSWTFGQGTKVEIKR"
,,,,no binding (tested: 5 ug/ml),binds,"hu anti-<huCDH19> 26D1.1 (Ab ID 13882) (antibody, human IgG1, lambda, V domains shown, huIgG1z / huLLC-C2; Bin 2) VH: QVQLVQSGAEVKKPGASVKVSCKASRYTFTSYYMSWVRQAPGQGLEWMGIIHPSGGDTTYAQKFQGRVTMTGDTSTSTVYMELSSLRSEDTAVYYCARGGIKLWLHFDYWGQGTLVTVSS VL: not shown"

# Further lines, the binder ahead of its results:
Binder,binding result [1],binding result [2],binding result [3],binding result [4],binding result [5],binding result [6]
"anti-CDH19 antibody 2G6 (Ab ID 13588) (antibody, human IgG1, lambda, V domains shown, Bin 4) VH: QVQLVESGGGVVQPGRSLRLSCAASGFTFSSYGMHWVRQAPGKGLEWVAFIWYDGSNKYYADSVKDRFTISRDNSKNTLYLQMKSLRAEDTAVYYCARRAGIIGTIGYYYGMDVWGQGTTVTVSS VL: SYELTQPPSVSVSPGQTASITCSGDRLGEKYTCWYQQRPGQSPLLVIYQDTKRPSGIPERFSGSNSGNTATLTISGTQAMDEADYYCQAWDSSTVVFGGGTKLTVLG",binds,binds,binds,binds,,
"hu anti-<huCDH19> 4A9 (Ab ID 13589) (antibody, human IgG1, lambda, V domains shown, huIgG1z / huLLC-C1; Bin 1) VH: QVQLQESGPGLVKPSETLSLTCTVSGGSISGYYWSWIRQPPGKGLEWFAYFSYSGSTNYNPSLKSRVTLSVDTSKNQFSLKLSSVTAADTAVYYCARNWAFHFDFWGQGTLVTVSS VL: QSVLTQPPSVSGAPGQRVTISCTGSSSNIGTGYAVHWYQQFPGTAPKLLIYGNNNRPSGVPDRFSGSKSGTSASLAITGLQAEDEADYYCQSYDSRLSGWVFGGGTKLTVLG",,,,,no binding (tested: 5 ug/ml),binds
